The numbers were not newly measured in PMC6181577, which cites them from elsewhere.

pKd: −log10 of the molar value.

This data set deals with UBQLN2 UBA (Homo sapiens) (UniProt Q9UHD9).
Chain of UBQLN2 UBA (Homo sapiens) (Q9UHD9 578-624): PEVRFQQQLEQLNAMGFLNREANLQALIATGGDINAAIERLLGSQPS

Chain of UBQLN2 UBL (Q9UHD9 33-107): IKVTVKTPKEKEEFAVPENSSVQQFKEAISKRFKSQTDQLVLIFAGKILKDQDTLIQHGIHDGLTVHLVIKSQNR

With UBQLN2 UBL (from UniProt Q9UHD9), the pKd is 3.76.
